The subject of this data set is EE transcriptome. Kind of data set: Genome-wide microarray transcript profiling of esophageal biopsies, EE patients vs normal individuals (EE transcriptome). The conditions noted are these: transcript level in esophageal biopsies of EE patients compared to normal individuals (NL); Affymetrix Human Genome U133 plus 2; p<0.01; >1 up-regulated, <1 down-regulated. On the procedure: Esophageal tissue obtained from patients previously diagnosed with EE was analyzed. Diagnosis was based on analysis of excised tissue from endoscopic biopsy. Tissues from patients with EE, as well as patients not having EE (controls) were subjected to genome-wide microarray transcript profiling (Affymetrix GeneChip). All work was performed at the Core facility at Children's Hospital Medical Center (Cincinnati Ohio).
Briefly, RNA quality was first assessed using the Agilent bioanaiyzer (Agilent Technologies, Palo Alto Calif.). Only mRNA having a ratio of 28S/18S between 1.3 and 2 were subsequently used. RNA was converted to cDNA with Superscript choice for cDNA synthesis (Invitrogen, Carlsbad Calif.) and subsequently converted to biotinylated cRNA with Enzo High Yield RNA Transcript labeling kit (Enzo Diagnostics, Farmingdale N.Y.). After hybridization to the GeneChip (Affymetrix, Santa Clara Calif.), the chips were automatically washed and stained with streptavidin-phycoerythrin using a fluidics system. The chips were scanned with a Hewlett Packard GeneArray Scanner. Over 30,000 unique genes were screened.
Levels of gene transcripts were determined from data image files, using algorithms in the Microarray Analysis Suite software (Affymetrix). Levels from chip to chip were compared by global scaling. Each gene was typically represented by a probe set of 16 to 20 probe pairs. Each probe pair consisted of a perfect match oligonucleotide and a mismatch oligonucleotide that contained a one base mismatch at a central position. Two measures of gene expression were used, absolute call and average difference. Absolute call is a qualitative measure in which each gene is assigned a call of present, marginal or absent, based on the hybridization of the RNA to the probe set. Average difference is a quantitative measure of the level of gene expression, calculated by taking the difference between […] of every probe pair and averaging the differences over the entire probe set. Data were normalized and an EE transcriptome gene list was created with results having p<0.01 (Welch t-test with or without false rate discovery) and ≥1.5-fold change.
For evaluation of EE using clinical and/or physical assessment, biopsy tissues (obtained from the distal esophagus during routine endoscopy) were submerged in formalin for routine pathological analysis with hematoxylin and eosin staining. Diagnosis was established based on the maximum eosinophil count per high power field (hpf) and basal layer expansion according to method known in the art (e.g., established criteria in Rothenberg et al., Pathogenesis and clinical features of eosinophilic esophagitis. J Allergy Clin Immunol 108 (2001) 891; Attwood et al., Esophageal eosinophilia with dysphagia. A distinct clinicopathologic syndrome. Dig Dis Sci 38 (1993)109; Fox et al., Eosinophilic esophagitis: its not just kid's stuff. Gastrointest Endosc 56 (2002) 26, each of which is expressly incorporated by reference herein in its entirety. Normal individuals (NL), n=13, served as a control and were defined as having 0 eosinophils/hpf and no basal layer expansion. Individuals with EE (n=76) were defined as having >24 eosinophils/hpf and extensive basal layer hyperplasia (expansion to about >⅓ of epithelium).
The data were analyzed by cluster analysis and ordered (standard correlation (A) and distance (B)) using Genespring software. […] Each column represented a separate individual and each line a gene. RNA from each patient was subjected to chip analysis using Affymetrix Human Genome U133 GeneChip plus 2.

B1: SEQ_ID_#807 (nucleic acid, listed as Homo sapiens)
DNA: TTAGCATTTTTAAATTTTATTATGACTTCATTTGTTTAAATATATATATATATATATATATATATATTTATTTATAGCTCTATGTGCCCACCGCCCCCGGCCCCCTCCCCGGCCCCTAGTTTTTCCCCCTGGCTTTCTGTCTAGTGGCTGTGTAGGGCAGAACCGTCTGCGTGCTCTTGTCTGACACTGTCTGGGTGCTGCTGTTCCTCGTGACCCTTCGAGTCTGTTCAGGGGCCAAGGTAGAGCCTGAGTGGCGGCTGGTCAGTGGAGAGCGCCGTGACTTGTAGGGGGCTGGGGAGGGCTTGTGGGGGCCTGCATGGGCCTCTGTATGGGCAGGCTCAGGGGGCAAGCCCACTTCTTCCTCCTCCACCTCCTGCTCACCGTCCCCCTCCTCATCGTC
On to B1, for which the “Fold Change” value worked out at 1.514.

B2: SEQ_ID_#840 (nucleic acid, listed as Homo sapiens)
DNA: TACCACACATCTTCTTTATTAATGCATTGACAATCAGTGAAGACAATGAAAACCCACCACTTTTGTCCGTGAACTGAGAAAGAAAATGGCAATGTCATATGGCATTAATGATGCATGAGATCTATGGGTGTAGTGTCACGTCTAGGCGTGTAGTAATCCAGTCTTCGGCCTTACTCCAGGGAGAAAGATTCAGCTTTGTTACTTTCCAGTCACTCTCTCCCGTAACACAGCACCAAGACCGTTTAAAGCACTTAATTAATTCACTTCAGCTTCGCTGGAGAGGTCTCAGGGTTCCCGAGACTCCATTACATAATATCTTTCACAAAGTCTATTCCCAGCTCGAATGGAAGATGGATTCTCATCCAGTGTGCGG
As for B2, the “Fold Change” value was determined as 0.665.

B3: SEQ_ID_#917 (nucleic acid, listed as Homo sapiens)
DNA: TTGTTTGGAAAGATGAAAAATTTATTAGAAAAGATCTTTAAATGGCTTTTACTAAAGCGTCATTTAACAATTTTTCATATTATAGAAACAGCTTTTCATGGATGGTGTGACTGGGTCTGTATCCAAACCCGGTTCGGTTCCTGGAGCCAACGGCGTAGTTAACACTCAGCCTCTTGCAGTTAACACTCAGCCTCTTAACTGGGAGTGGCCCTGGAGCAAGTCGCTGGAATGTTCAAGCTCCGCGTCACTCATCGGTACCAAGTTGATGATCTCTGCCTAGGGTTCTTCGCCACCCTCAGGCTCAAGTCCCAGGAGGCCTCCTCCGCTGACTTGGGTGAACAGCTCTGAGTTCCGGAGAGGGTTCGGTCTGCGGAGAAGCGCGCGAGAGACAAGCATCCTCAAGGTTCTGGTACAAAATTTGGAAAATGACCTGGCGTTGAAATCTTTACTCCTCGTTTAAAAAGACCATCGAAAGGGAAAAAATAAAAGAAATTGCAGTTTATATTTTTGTTATCCCATGAAAAATTAGCTGCAGTGTTTTCCTCTTCATGCCAAAGAGATTAATATTTACGGTGAAGACTTTTCCAGGAAGTCGTGGTTTTCTGGGGCCCTGCCTCTGAGCCTTTTGTTTCCTCCTTTTTAAAAACACCGGATGAAAGACCCAGTGTGCCTTGGATCGCAGAGCGCGGCCGCATGTCTGCTTTGA
B3: the “Fold Change” value worked out at 0.637.

B4: SEQ_ID_#808 (nucleic acid, listed as Homo sapiens)
DNA: TTTCACTATAGAAAACCTTTAATAACAACTTCAGATTTACATGACCCTTCTGGTGCTCAGAACACTATGGATTAACACACACACTGGAAAGATACAGACACAGGAATCTGCTGCATTACCCCAAATGGCAAAGTCTTGACTGGGGCTTCAGCTCCTTTCCCAATCCAAAATTGGCACCTTTTTCCATGGAAATTCAAACTGCATCTCTAAATGATGGGGTACATGAACTGTCTGTTTCAAAAGTATTTAAAAACAAACAGGAAGTACAGCTTCCATTTCATTAAGAAAACACCACCACAAGACATGGTGCAGTATCTACTAGCTTAAAGTTTATCACTCCATTAGGGCTTATTGACAGCAGAAATGTGAATGTAGTAATGTAGAAATAAGGAAGAGAGCACTTAAGAAAAAAACAGTACAGAAGTTTTAGAGTTTTTTAAACTTTAATAATATGCTTGACTAATATAGTCAAAAGTGATATGCACTCGTGAAATTAACCCATTTTCTGAAGTCCAAATTAGCTATTAAAGTCTTTTTTTACCAAAAACATATAAGGATTTAGTACACTATATAGATTACATAGCTTTCCT
In the case of B4, the “Fold Change” value was determined as 1.513.

B5: SEQ_ID_#915 (nucleic acid, listed as Homo sapiens)
DNA: CAATAGGAGAAGCCAAGAAACGCAGATGCCGATGCTTAATCAACTCCGTCTCTCCCTCTAGTGACTCGGGGATAGCTGCCCTGATGCCAAGGCGATTGTCTTCTGGAAGCAGCCACGCCGTGTGAGGTTCCTCATCACTGCCCTGCATCTCCCTGCGAGCTCTCGGGGATAATTGCAAAATCACGTTTGATTCCAGGGAGCAGAAAGCAGCAGGAGCCGTGAATTCTCCAACTCTTAACTGGTCCTCGACTGAGCCACTTTTCCCTGCCCACCCATCCCTGTGGCGGATTCATTACAGTTATCCAAAGCCGGTTTTAACTTTGCTCCCCCTGGCTCAGAAGTCTGTCAGTGGGTCCTGAGCGGTTCACCATTCAAGTTTATTCCTATCAGCCTGGAATACAATGCTCTATCTG
As to B5, the “Fold Change” value is 0.638.

B6: SEQ_ID_#901 (nucleic acid, listed as Homo sapiens)
DNA: CTCCTCGCCCTCCCCACCGACATCATGCTCCAGTTCCTGCTTGGATTTACACTGGGCAACGTGGTTGGAATGTATCTGGCTCAGAACTATGAT
modifications: chemistry not fully specified; the letters are possibly those of the target site
Regarding B6, the “Fold Change” value came to 0.643.

B7: SEQ_ID_#948 (nucleic acid, listed as Homo sapiens)
DNA: AGAGGCGGGCTTCCCTCGGAAAACGGAGGGTTGAAACCCAGAAAGCTCCTCGGAGCCCTTCTGGGGTTCGGGCGATCTGGGCAGAGAACTCTCGGGTGGCAAGGAATTAAGGGCAGCGCGAACGACGGTCTCTAGACAAGTATGAAGCCTCCCCTGAGTGTGTCCGGCGCTCAGGGGGTGGACCGGGGTGTTGGTTTCAAGGAGGGGGCCATCGTTTGCACCACGGCGTCCAGAAATACTCATCCTTTGCCCTTCGGGGAGGCAACAGAGCAGCCAACTGACTGTTCTGGCCAAAGAGACTGGAGATCCAGTATCAGCAAGCTACTTTCTTGGTAAACCTCCATTTCCCAATGCTCATCTTTGTCCTCTACCCCCACCCATCCCAAGGCAAATGATGAAAACATCTATTGGATCCAGCCTTTGCTATCTTCTCCATGCTGCTCATAGTGGGTCTAGCAATGTCCCATTCTCGGTAATGTTTGGTAGGTCTAAAACATCCTCACGAAATGTTCCCCAAATGTTCTGCTCCAGCTGAGCAACTAATAACAATGGGAAGATGCAGAAAAAAAATGCATGGAGCATAATGTTAGTTTTGGGACTCGTCAGTGGCAACGTTTTAGAGATGCCATGAAGAATTCCTGGTAATAATCCTTCTTCCTACAGCATTTAGCAATGAATACTATGGGATTATGGCTAAAAGATGGTCAAGACTGCCTCAGCCATTAGGATCAGAATTCTAAGTTCCAAAGAAGAGCAAACTCAAGAGGATTTCCTCAGGCCTCTGACTATAGATGCTGCCTGGGGAGAACAGGTGCTACACTCAAAACATTCTCATTTTATTTATATCCTCCCTGAACTAGTACCCAACTCCATAACCCCAGACTCAAATAACAGAAATAAAAGCCATCTCACTGATTATAAGCTCTCTAGTTATTACAAAAATAAATAAGCATCAATCAACCAACAGGCATCAGAATGAGAAAATCACTGATTTGAGACATTCAGGCTGCAGGAAAAGAACACTTTTTGTTAATATGTAACTATATCTTCAGTAGTACAGAAAAATGAGAAGAACGAGAGTTCTTACCTGGATTTGCGGCTCACTTAAAGTAGAGCACCTGAGATGCTGGGAAATCATAAAGATAAATAACCAATCTAACAAATTCCTGCCATGAGACCAAAGTGATCCTTGACTACTCTATTAGTAAGCGACTCTGAGCCAAGAGTACGAACCTGTAAGTGGAGTGGTGGTTGGCCCATTAGAAATCTCTGAAAGATCTAAACATGACAGTTACCTTCCTACTGGACTCATACTTCTCAATTCCCTCTCCTAAAAGAATACTTTTGGGCTGGCCCCAGTGGCTCACACCTGTAATCTCGGCACTTTGGGAAGCCAAGGTGGGAGGATTGCTTGAGGACAAGAGTTTGAGACCAGCTCGGTGGAAACATAGCACCATCCATGTCTCTACC
B7: the “Fold Change” value was found to be 0.629.

B8: SEQ_ID_#906 (nucleic acid, listed as Homo sapiens)
DNA: TGCTTTTGTTGTTGTTTTTAATTTAAAAAGACAAAATTGTTCGCCTTGTATAGAAGTAGATACAGCTTAGAGAGCCAAGGTAACAAGAGGGGAAAAGTTTGTGTTGTCTGGTACTTTTGAGGGAGTCAGAAGCCTAAAGGGAGGCTCTAACTCATGATTCTCAGAAGACAACTGTTGTCAACAGTTCAAATGAGAACTGAACGGCCACACTCCTGCAGCTGAAAGGAGTCAATGCGAGCTGAGTTGCTCTCACCGAACAGAGTGCGTTCCCCGGGGAGGCAGGGAAAGGCCGGCTTGCACCTGCTCTGTCACCCAGCTCCACTCTTAGGACAGAAGAGGTCTGGAAAATGTCTGGG
B8: the “Fold Change” value is 0.64.

B9: SEQ_ID_#909 (nucleic acid, listed as Homo sapiens)
DNA: B8 DNA
Turning to B9, the “Fold Change” value came to 0.639.

Source of the values: US10155985B2, “Evaluation of eosinophilic esophagitis” (CHILDREN'S HOSPITAL MEDICAL CENTER, priority 2004, dated 2018).
